{"source": "patent US20200140826A1", "about": "“Maintenance and Expansion of Pancreatic Progenitor Cells” (AGENCY FOR SCIENCE, TECHNOLOGY AND RESEARCH, priority 2017, published 2020)", "molecules": {"B1": {"name": "FGF10: fibroblast growth factor 10, growth factor in the cPP culture medium (50 ng/mL) (protein, UniProt O15520 38-208, looked up)", "Fibroblast growth factor 10": "QALGQDMVSPEATNSSSSSFSSPSSAGRHVRSYNHLQGDVRWRKLFSFTKYFLKIEKNGKVSGTKKENCPYSILEITSVEIGVVAVKAINSNYYLAMNKKGKLYGSKEFNNDCKLKERIEENGYNTYASFNWQHNGRQMYVALNGKGAPRRGQKTRRKNTSAHFLPMVVHS"}}, "system": "cPP cells", "experiment": "Omission of individual components from complete cPP culture medium on 3T3-J2 feeders (phase contrast, qRT-PCR)", "assay_type": "cell-based, human", "experimental": "Gentle cell dissociation reagent (STEMCELL Technologies, 07174) was used to passage cPP cells as aggregates that were then seeded at a 1:6 split ratio onto a layer of 3T3-J2 feeders (0.5×10^6 to 1×10^6 cells/cm^2) in medium composed of advanced DMEM/F12 (Thermo Fisher Scientific, 21634010), 2 mM L-glutamine (Thermo Fisher Scientific, 25030), 100 U/mL penicillin/streptomycin (Thermo Fisher Scientific, 15140122), 1× N2 supplement (Thermo Fisher Scientific, 17502-048), 1× B27 supplement (Thermo Fisher Scientific, 17504-044), 30 nM dexamethasone (STEMCELL Technologies, 72092), 50 ng/mL EGF (R&D Systems, 236-EG-200), 50 ng/mL FGF10 (Source Bioscience, ABC144), 3 μM RA (Sigma, R2625), 10 μM SB431542 (Calbiochem, 616464), and 1 μM DAPT (Sigma, D5942). If plating single cPP cells, complete medium was supplemented with 10 μM Y27632 for the first 48 hr (Sigma, Y0503). Medium was completely replenished every 2-3 days.\nRNA was isolated from samples using an RNeasy mini kit (Qiagen, cat # 74104) and reverse transcribed to generate cDNA using a high-capacity reverse transcription kit and random hexamer primers (Applied Biosystems, 4368814,1 μg RNA per 20 μL reaction). Quantitative RT-PCR was carried out using SYBR Select Mastermix (Applied Biosystems, 4472908). Data were analyzed using the ΔΔCT method, and normalized to expression of the housekeeping gene TBP in each sample. […]", "data": [{"molecule": "B1", "values": [{"measurement": "Effect of removing the component on cPP expansion, colony size and morphology", "setting": "component individually omitted from complete medium, cPP cells cultured 6 days on 3T3-J2 feeders", "result": "did not significantly affect colony size or morphology in the short term"}, {"measurement": "Effect of removing the component on viability", "setting": "component removed from the culture media over multiple passages", "result": "noticeable loss of viability"}]}]}
